{"source": "patent US20180171001A1", "test_in_all_cases": "cell-based or functional assay", "key": {"[1]": {"molecular_target": "Env of HIV-1 strain PVO.4 (HIV-1)"}, "[2]": {"molecular_target": "Env of HIV-1 strain ZM109F.PB4 (HIV-1)"}, "[3]": {"molecular_target": "Env of HIV-1 strain 231965.c1 (HIV-1)"}, "[4]": {"molecular_target": "Env of HIV-1 strain R1166.c1 (HIV-1)"}, "[5]": {"molecular_target": "Env of HIV-1 strain YU2.DG (HIV-1)"}, "[6]": {"molecular_target": "Env of HIV-1 strain Du172.17 (HIV-1)"}, "[7]": {"molecular_target": "Env of HIV-1 strain ZM53M.PB12 (HIV-1)"}, "[8]": {"molecular_target": "Env of MuLV"}, "[9]": {"molecular_target": "Env of HIV-1 strain 250-4 (HIV-1)"}, "[10]": {"molecular_target": "Env of HIV-1 strain 3365.v2.c20 (HIV-1)"}, "[11]": {"molecular_target": "Env of HIV-1 strain 3016.v5.c45 (HIV-1)"}, "[12]": {"molecular_target": "Env of HIV-1 strain 251-18 (HIV-1)"}, "[13]": {"molecular_target": "Env of HIV-1 strain X1254_c3 (HIV-1)"}, "[14]": {"molecular_target": "Env of HIV-1 strain 3415.v1.c1 (HIV-1)"}, "[15]": {"molecular_target": "Env of HIV-1 strain H086.8 (HIV-1)"}, "[16]": {"molecular_target": "Env of HIV-1 strain REJO4541.67 (HIV-1)"}}}
{"binder": "γ20κ18 (antibody, V domains shown) VH: QIHLVQSGTEVKKPGSSVAVSCKAYGVNTFGLYAVNWVRQAPGQSLEYIGQIWRWKSSASHDFRGRVIISAVDLTGSSPPISSLEIKNLTSDDTAVYFCTATSTPDYWSGLHHDGVMAFSSWGQGTLISVSA VL: DIQMTQSPSTLSASVGDTVRISCRASQSITGGWLAWYHQRPGKAPRLLIYRGSRLLGGVPSRFSGSAAGADFTLTIANLQAEDFGTFYCQQYDTYPGTFGQGTKVEVKR", "values": [{"measurement": "neutralization IC50", "setting": "[1]", "value": "> 15", "unit": "µg/mL"}, {"measurement": "neutralization IC50", "setting": "[2]", "value": "> 15", "unit": "µg/mL"}, {"measurement": "neutralization IC50", "setting": "[3]", "value": "> 15", "unit": "µg/mL"}, {"measurement": "neutralization IC50", "setting": "[4]", "value": 20, "unit": "µg/mL"}, {"measurement": "neutralization IC50", "setting": "[5]", "value": "> 15", "unit": "µg/mL"}, {"measurement": "neutralization IC50", "setting": "[6]", "value": "> 15", "unit": "µg/mL"}, {"measurement": "neutralization IC50", "setting": "[7]", "value": "> 15", "unit": "µg/mL"}, {"measurement": "neutralization IC50", "setting": "[8]", "value": "> 30", "unit": "µg/mL"}, {"measurement": "neutralization IC50", "setting": "[9]", "value": "> 15", "unit": "µg/mL"}, {"measurement": "neutralization IC50", "setting": "[10]", "value": "> 15", "unit": "µg/mL"}, {"measurement": "neutralization IC50", "setting": "[11]", "value": "> 15", "unit": "µg/mL"}, {"measurement": "neutralization IC50", "setting": "[12]", "value": "> 15", "unit": "µg/mL"}, {"measurement": "neutralization IC50", "setting": "[13]", "value": 5.22, "unit": "µg/mL"}, {"measurement": "neutralization IC50", "setting": "[14]", "value": "> 15", "unit": "µg/mL"}, {"measurement": "neutralization IC50", "setting": "[15]", "value": "> 15", "unit": "µg/mL"}, {"measurement": "neutralization IC50", "setting": "[16]", "value": "> 15", "unit": "µg/mL"}]}
{"binder": "γ22κ18 (antibody, V domains shown) VH: QIHLVQSGTEVKKPGSSVTVSCKAYGVNTFGLYAVNWVRQAPGQSLEYIGQIWRWKSSASHHFRGRVLISAVDLTGPSPPISSLEIKNLTSDDTAVYFCTTTSTYDKWSGLHHDGVMAFSSWGQGTLISVSA VL: DIQMTQSPSTLSASVGDTVRISCRASQSITGGWLAWYHQRPGKAPRLLIYRGSRLLGGVPSRFSGSAAGADFTLTIANLQAEDFGTFYCQQYDTYPGTFGQGTKVEVKR", "values": [{"measurement": "neutralization IC50", "setting": "[1]", "value": "> 15", "unit": "µg/mL"}, {"measurement": "neutralization IC50", "setting": "[2]", "value": "> 15", "unit": "µg/mL"}, {"measurement": "neutralization IC50", "setting": "[3]", "value": 26, "unit": "µg/mL"}, {"measurement": "neutralization IC50", "setting": "[4]", "value": 7.31, "unit": "µg/mL"}, {"measurement": "neutralization IC50", "setting": "[5]", "value": 8.23, "unit": "µg/mL"}, {"measurement": "neutralization IC50", "setting": "[6]", "value": "> 15", "unit": "µg/mL"}, {"measurement": "neutralization IC50", "setting": "[7]", "value": "> 15", "unit": "µg/mL"}, {"measurement": "neutralization IC50", "setting": "[8]", "value": "> 30", "unit": "µg/mL"}, {"measurement": "neutralization IC50", "setting": "[9]", "value": "> 15", "unit": "µg/mL"}, {"measurement": "neutralization IC50", "setting": "[10]", "value": "> 15", "unit": "µg/mL"}, {"measurement": "neutralization IC50", "setting": "[11]", "value": 13.3, "unit": "µg/mL"}, {"measurement": "neutralization IC50", "setting": "[12]", "value": "> 15", "unit": "µg/mL"}, {"measurement": "neutralization IC50", "setting": "[13]", "value": 1.58, "unit": "µg/mL"}, {"measurement": "neutralization IC50", "setting": "[14]", "value": "> 15", "unit": "µg/mL"}, {"measurement": "neutralization IC50", "setting": "[15]", "value": "> 15", "unit": "µg/mL"}, {"measurement": "neutralization IC50", "setting": "[16]", "value": "> 15", "unit": "µg/mL"}]}
{"binder": "γ23κ18 (antibody, V domains shown) VH: QIHLVQSGTEVKKPGSSVTVSCKAYGVNTFGLYAVNWVRQAPGQSLEYIGQIWRWKSSASHHFRGRVIISAVDLTGSSPPISSLEIKNLTSDDTAVYFCTTTSTSDYWSGLHHDGVMAFSSWGQGTLISVSA VL: DIQMTQSPSTLSASVGDTVRISCRASQSITGGWLAWYHQRPGKAPRLLIYRGSRLLGGVPSRFSGSAAGADFTLTIANLQAEDFGTFYCQQYDTYPGTFGQGTKVEVKR", "values": [{"measurement": "neutralization IC50", "setting": "[1]", "value": 0.047, "unit": "µg/mL"}, {"measurement": "neutralization IC50", "setting": "[2]", "value": "> 15", "unit": "µg/mL"}, {"measurement": "neutralization IC50", "setting": "[3]", "value": 0.128, "unit": "µg/mL"}, {"measurement": "neutralization IC50", "setting": "[4]", "value": 0.708, "unit": "µg/mL"}, {"measurement": "neutralization IC50", "setting": "[5]", "value": 0.117, "unit": "µg/mL"}, {"measurement": "neutralization IC50", "setting": "[6]", "value": 2.95, "unit": "µg/mL"}, {"measurement": "neutralization IC50", "setting": "[7]", "value": "> 15", "unit": "µg/mL"}, {"measurement": "neutralization IC50", "setting": "[8]", "value": "> 30", "unit": "µg/mL"}, {"measurement": "neutralization IC50", "setting": "[9]", "value": "> 15", "unit": "µg/mL"}, {"measurement": "neutralization IC50", "setting": "[10]", "value": "> 15", "unit": "µg/mL"}, {"measurement": "neutralization IC50", "setting": "[11]", "value": 0.047, "unit": "µg/mL"}, {"measurement": "neutralization IC50", "setting": "[12]", "value": 1.58, "unit": "µg/mL"}, {"measurement": "neutralization IC50", "setting": "[13]", "value": 0.545, "unit": "µg/mL"}, {"measurement": "neutralization IC50", "setting": "[14]", "value": "> 15", "unit": "µg/mL"}, {"measurement": "neutralization IC50", "setting": "[15]", "value": "> 15", "unit": "µg/mL"}, {"measurement": "neutralization IC50", "setting": "[16]", "value": 0.061, "unit": "µg/mL"}]}
{"binder": "γ46κ18 (antibody, V domains shown) VH: QIHLVQSGTEVKKPGSSVTVSCKAYGVNTFGLYAVNWVRQAPGQGLEYIGQIWRWKSSASHHFRGRVLISAVDLTGSSPPISSLEIKNVTSDDTAVYFCTTTSTYDKWSGLHHDGVVAFSSWGQGTLISVSA VL: DIQMTQSPSTLSASVGDTVRISCRASQSITGGWLAWYHQRPGKAPRLLIYRGSRLLGGVPSRFSGSAAGADFTLTIANLQAEDFGTFYCQQYDTYPGTFGQGTKVEVKR", "values": [{"measurement": "neutralization IC50", "setting": "[1]", "value": 2.1, "unit": "µg/mL"}, {"measurement": "neutralization IC50", "setting": "[2]", "value": "> 15", "unit": "µg/mL"}, {"measurement": "neutralization IC50", "setting": "[3]", "value": 4.16, "unit": "µg/mL"}, {"measurement": "neutralization IC50", "setting": "[4]", "value": 4.1, "unit": "µg/mL"}, {"measurement": "neutralization IC50", "setting": "[5]", "value": 2.36, "unit": "µg/mL"}, {"measurement": "neutralization IC50", "setting": "[6]", "value": "> 15", "unit": "µg/mL"}, {"measurement": "neutralization IC50", "setting": "[7]", "value": "> 15", "unit": "µg/mL"}, {"measurement": "neutralization IC50", "setting": "[8]", "value": "> 15", "unit": "µg/mL"}, {"measurement": "neutralization IC50", "setting": "[9]", "value": "> 15", "unit": "µg/mL"}, {"measurement": "neutralization IC50", "setting": "[10]", "value": "> 15", "unit": "µg/mL"}, {"measurement": "neutralization IC50", "setting": "[11]", "value": 2.99, "unit": "µg/mL"}, {"measurement": "neutralization IC50", "setting": "[12]", "value": "> 15", "unit": "µg/mL"}, {"measurement": "neutralization IC50", "setting": "[13]", "value": 4.2, "unit": "µg/mL"}, {"measurement": "neutralization IC50", "setting": "[14]", "value": "> 15", "unit": "µg/mL"}, {"measurement": "neutralization IC50", "setting": "[15]", "value": "> 15", "unit": "µg/mL"}, {"measurement": "neutralization IC50", "setting": "[16]", "value": "> 15", "unit": "µg/mL"}]}
